Assay results as given in publication PMC12121223.

Target: extracellular region of FGFR1 fused to the Fc fragment of human IgG1 (UniProt P11362)
UniProt P11362, sequence (P11362 22-376): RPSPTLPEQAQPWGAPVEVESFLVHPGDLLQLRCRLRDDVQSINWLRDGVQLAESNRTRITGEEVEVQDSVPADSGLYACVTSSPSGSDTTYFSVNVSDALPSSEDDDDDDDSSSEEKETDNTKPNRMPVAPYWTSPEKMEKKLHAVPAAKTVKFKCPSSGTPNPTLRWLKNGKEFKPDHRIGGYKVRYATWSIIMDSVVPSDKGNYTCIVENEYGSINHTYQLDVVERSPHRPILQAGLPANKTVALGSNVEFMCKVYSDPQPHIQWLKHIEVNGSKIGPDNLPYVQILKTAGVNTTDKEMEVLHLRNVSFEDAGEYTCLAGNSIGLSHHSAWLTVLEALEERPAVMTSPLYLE

“truncated wild-type FGF1 (Met-Ala-FGF1 21-154) (ligand)” showed a cellular uptake of fluorescently labelled FGF1WT into U2OS-R1 cells in the presence of heparin, quantitative confocal microscopy (normalized RSI) of 25.2%.
